Binding result and EC50 data for 18 molecules are collected here from patent US20250270300A1 (UNIVERSITY COURT OF THE UNIVERSITY OF ABERDEEN, published 2025).

The target of one assay is T1, human serum albumin (human, UniProt P02768 25-609).
T1 construct: also called HSA
Kind of assay: ELISA. Background: An ELISA detects its analyte on a solid surface through an enzyme-linked reagent.

The target in assay [1] is T2, Recombinant Hyr1 N-terminus fragment (Candida albicans, UniProt Q5AL03 63-350).
T2 construct: the last 288 residues are Hyr1 63-350; Expressed in HEK293F cells, 32 kDa; also called recombinant N-terminus of the Hyr1 protein; purified Hyr1 protein
T2 sequence: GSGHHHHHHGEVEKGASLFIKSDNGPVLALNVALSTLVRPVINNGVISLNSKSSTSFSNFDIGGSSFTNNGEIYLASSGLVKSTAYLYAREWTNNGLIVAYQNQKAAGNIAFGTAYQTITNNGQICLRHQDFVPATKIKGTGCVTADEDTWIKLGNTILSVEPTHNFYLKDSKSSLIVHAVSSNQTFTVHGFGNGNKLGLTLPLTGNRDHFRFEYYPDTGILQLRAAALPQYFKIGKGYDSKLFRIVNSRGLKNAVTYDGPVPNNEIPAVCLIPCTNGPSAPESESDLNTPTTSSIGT
Put plainly: ELISA, plate coated with recombinant Hyr1 N-terminus, titrated mAb.

Where a chain is given by its changes, count along the chain named.

By EC50 is commonly meant the midpoint of the concentration-response curve.

T1 sequence (P02768 25-609 limits assumed): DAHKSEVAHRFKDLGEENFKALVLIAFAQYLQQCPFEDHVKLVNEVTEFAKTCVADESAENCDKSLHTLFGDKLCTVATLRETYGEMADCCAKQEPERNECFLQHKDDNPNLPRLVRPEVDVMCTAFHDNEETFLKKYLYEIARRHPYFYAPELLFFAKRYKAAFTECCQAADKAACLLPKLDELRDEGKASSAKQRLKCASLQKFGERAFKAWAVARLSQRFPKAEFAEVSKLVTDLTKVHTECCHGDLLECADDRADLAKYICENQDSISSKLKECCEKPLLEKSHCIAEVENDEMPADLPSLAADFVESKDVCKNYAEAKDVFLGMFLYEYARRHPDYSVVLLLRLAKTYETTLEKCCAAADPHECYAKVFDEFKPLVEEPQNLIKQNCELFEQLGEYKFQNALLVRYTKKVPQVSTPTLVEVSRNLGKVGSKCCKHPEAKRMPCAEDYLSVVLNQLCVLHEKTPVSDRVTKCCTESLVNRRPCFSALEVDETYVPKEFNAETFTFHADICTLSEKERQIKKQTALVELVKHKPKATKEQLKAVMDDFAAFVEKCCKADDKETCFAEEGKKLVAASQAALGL

B1: AB126 (antibody, human IgG1, V domains shown)
VH: EVQLVESGGGLAQPGGSLRLSCEASGFHLAGNAMAWVRQAPGKGLEWVAAIGGSDDRTDYADSVKGRFTISRDKSKNTLSLQMNSLRVEDTAVYYCAKDIWRWAFDYWGQGTLVSVSS
VL: DIVMTQSPATLSLSPGERATLSCWASQYINTYVNWYQHKPGQAPRLLIYDASKRATGIPARFSGSGSGTDFTLTISSLEPEDFAVYYCQQGSNWPLTFGQGTRLEIK
notes: Tested as purified recombinant whole human IgG1 (Expi293F); also called 06-AB-126; anti-whole cell mAb
Take B1: the binding result in the assay with human serum albumin is “no binding”.

B2: AB119 (antibody, human IgG1, V domains shown)
VH: QVTLKESGGGLVQPGGSLRLSCVASGFTFRTYWMHWVRQDPGKGLVWVSRLDEVGRLTSYADSVNGRFTISRDNAKNILYLQMNSLRAEDTGVYYCARDLSGSADYWGQGTLVTVSS
VL: DVVLTQSPLFLPVTPGEPASISCRSSQSLLHSRGHTSLHWYLQKPGQSPHLLIYSVFNRASGVPDRFSGSGSGTDFTLKISRVEAEDVGVYYCMQALEPPYTFGQGTKLEIK
notes: Tested as purified recombinant whole human IgG1 (Expi293F); also called 06-AB-119; anti-whole cell mAb
Regarding B2, the binding result with human serum albumin is listed as “no binding”.

B3: AB127 (antibody, human IgG1, V domains shown)
VH: EVQLVESGGGLVNPGGSLRLSCAASGFTFSNYAMNWVRQAPGKGLEWVSSISRSGDYIYYADSLKGRSTISRDNAKNSLFLQMNSLRAEDSAVYYCARDWGRLGYCSSNNCPDAFDVWGQGTRVSVSS
VL: EIVMTQSPSFVSASVGDRVTITCRASQDISNWLVWYQQKPGKAPKLLIYASSNLQSGVPSRFSGSGSGTDFALTIISLQPEDFATYYCQQENSFPYTFGQGTKLEIK
notes: Tested as purified recombinant whole human IgG1 (Expi293F); also called 06-AB-127; anti-whole cell mAb
Take B3: the binding result in the assay with human serum albumin was “no binding”.

B4: AB123 (antibody, human IgG1, V domains shown)
VH: EVQLLESGGGVVQPGRSLRLSCAASGFTFSNYGMHWVRQAPGKGLEWVAVVWFDGSYKYYTDSVKGRFTISRDNSKSTLYLQMNSLRAEDTAVYYCVSPIMTSAFDIWGPGTMVSVSS
VL: QLVLTQPPSASGSPGQSVTISCTGTSSDVGGSNFVSWYQHHPGKAPKLMIYEVSQRPSGVPDRFSGSKSGNTASLTVSGLQADDEADYYCSSYAGSVVLFGGGTKLTVL
notes: Tested as purified recombinant whole human IgG1 (Expi293F); also called 06-AB-123; anti-Hyr1 mAb
Turning to B4, in assay [1], the EC50 is 0.0533 µg/mL. The binding result in the assay with human serum albumin is recorded as “no binding”.

B5: AB124 (antibody, human IgG1, V domains shown)
VH: B4 VH with L5V, F53L, D62G, V93A, S115T
VL: B4 VL
notes: Tested as purified recombinant whole human IgG1 (Expi293F); also called 06-AB-124; anti-Hyr1 mAb
As for B5, the EC50 in assay [1] turned out to be 1.05 µg/mL. Moreover, the binding result with human serum albumin is given as “no binding”.

B6: AB134 (antibody, human IgG1, V domains shown)
VH: QLQLQESGGGLVQPGGSLRLSCVVSGFTFSSHAMSWVRQAPGKGLEWVSSISISGGDTFYADSVRGRFTIFRDNSKNTVYLQMNSLRAEDTAVYYCATETSPNDYWGQGTLVSVSS
VL: SYELTQPSSLTVSPGGTVTLTCGLSSGAVTSGHYPYWFQQKPGQAPKTLIFDTSRKHSWTPARFSGSLLGGKAALTLSGAQPEDDADYYCLLACNGACVFGGGTKLTVL
notes: Tested as purified recombinant whole human IgG1 (Expi293F); also called 06-AB-134; anti-whole cell mAb
On to B6, for which, in the assay with human serum albumin, the binding result is given as “no binding”.

B7: AB135 (antibody, human IgG1, V domains shown)
VH: B6 VH with Q1E, L2V, Q5V, S7T, S113T
VL: B6 VL
notes: Tested as purified recombinant whole human IgG1 (Expi293F); also called 06-AB-135; anti-whole cell mAb
For B7, in the assay with human serum albumin, the binding result is reported as “no binding”.

B8: AB129 (antibody, human IgG1, V domains shown)
VH: QVQLVESGGGLVQPGGSLRLSCSASQFILSNYWVHWVRQVPGEGLVWVSRINEDGSVTSYADSVKGRFTISRDNAKNTLYLQMNSLRVDDTAVYYCVRDLCGERDDWGQGTLVTVSS
VL: VIWMTQSPLSLPVTPGEAASISCRSSQSLLHRNGRTFFAWYLQKPGQSPQILIYLGSNRAFGVPDRFSGSGSGTDFTLKISRVEAEDVGIYYCMQGLQTPYTFGQGTKLEIK
notes: Tested as purified recombinant whole human IgG1 (Expi293F); also called 06-AB-129; anti-whole cell mAb
Take B8: the binding result with human serum albumin is “no binding”.

B9: AB118 (antibody, human IgG1, V domains shown)
VH: B8 VH with Q1E, T114S
VL: B8 VL with V1D, W3V, R35K, F61S
notes: Tested as purified recombinant whole human IgG1 (Expi293F); also called 06-AB-118; anti-whole cell mAb
In the case of B9, the binding result with human serum albumin is given as “no binding”.

B10: AB130 (antibody, human IgG1, V domains shown)
VH: B8 VH with V2L, V5Q, G102W, T114S
VL: B8 VL
notes: Tested as purified recombinant whole human IgG1 (Expi293F); also called 06-AB-130; anti-whole cell mAb
On to B10, for which the binding result with human serum albumin was “no binding”.

B11: AB120 (antibody, human IgG1, V domains shown)
VH: EVQLVQSGGGLVQPGGSLGLSCAASGFIFTSYAMTWVRQAPGKGLEWVSVITGNVGTSYYADSVKGRFTISRDNSKKTVSLQMNSLRAEDTAIYYCVKTRYDFSSGYYFDDWGQGTLVSVSS
VL: DIVMTQSPSSVSASVGDKVTITCRASQGISRWLAWYQQKPGEAPELLIYAASSLQSGVPSRFSGSGSGTDFTLTISSLQPEDFATYYCQQANSFPITFGQGTRLQIK
notes: Tested as purified recombinant whole human IgG1 (Expi293F); also called 06-AB-120; anti-Hyr1 mAb
For the molecule B11, in assay [1], the EC50 is 0.104 µg/mL. The binding result with human serum albumin is listed as “no binding”.

B12: AB122 (antibody, human IgG1, V domains shown)
VH: EVQLVQSGGGLAQPGRSLRLSCAASGFGFDDFAMHWVRQPPGKGLEWVSGLTWNGGSIDYAGSVRGRFTISRDNAKNSLFLQMNSLRAEDTALYYCAKGLSGGTMAPFDIWGQGTMVSVSS
VL: QAGLTQPPSVSVAPGQTATIPCGGNNIGSKHVHWYQQKPGQAPVAVVYDDSDRPSGVPERFSGSNSGNTATLTISSVEAGDEADYYCQVWDRSSDHFWLFGGGTRLTVL
notes: Tested as purified recombinant whole human IgG1 (Expi293F); also called 06-AB-122; anti-Hyr1 mAb
Turning to B12, the EC50 in assay [1] worked out at 0.0496 µg/mL. Besides, in the assay with human serum albumin, the binding result was “no binding”.

B13: AB131 (antibody, human IgG1, V domains shown)
VH: QVQLVQSGGGVVQPGGSLRLSCAASPFTFKTSILHWVRQAPGKGLEWVSAMSYDGFSKYYADSVKGRLTISRDSSTNTLYLEMNSLRFEDTALYFCAREAYTSGRAGCFNPWGQGVLVSVSS
VL: DIVMTQTPSTQSASVGDRVTITCRASQSISIWLAWYQQKPGKAPKLLIHDASTLESGVPSRFSGSGSGTEFTLTISSLQPDDSATYYCQRYNDYPPTFGPGTKVEIK
notes: Tested as purified recombinant whole human IgG1 (Expi293F); also called 06-AB-131; anti-whole cell mAb
In the case of B13, the binding result with human serum albumin is “no binding”.

B14: AB132 (antibody, human IgG1, V domains shown)
VH: QVLKESGGGVVQPGGSLRLSCAASPFTFETSILHWVRQAPGKGLEWVSAMSYDGFSKYYADSVKGRLTISRDSSTNTLYLEMNSLRFEDTALYFCAREAYTSGRAGCFDPWGQGVLVSVSS
VL: B13 VL with D1E, T7S
notes: Tested as purified recombinant whole human IgG1 (Expi293F); also called 06-AB-132; anti-whole cell mAb
B14: the binding result with human serum albumin is on record as “no binding”.

B15: AB121 (antibody, human IgG1, V domains shown)
VH: EVQLVESGGTLVQPGGSLRLSCAASGFTFSDYWMNWVRQAPGKGLEWVANIKQDGSEKYYVDSLRGRVTISRDNAQNSVFLQMHSLSVEDTAVYYCARDGYTFGPATTELDHWGRGTLVSVSS
VL: QLVLTQPPSVSVSPGQTASITCSGDELRNKYTSWYQQKSGQSPVLVIYQDNNRPSGIPERFSGSQSGDTATLTISGTQAVDEADYYCQAWVSQTLVFGGGTKLTVL
notes: Tested as purified recombinant whole human IgG1 (Expi293F); also called 06-AB-121; anti-Hyr1 mAb
As for B15, the EC50 in assay [1] was 0.0765 µg/mL. Also, the binding result in the assay with human serum albumin was “no binding”.

B16: AB133 (antibody, human IgG1, V domains shown)
VH: EVQLVESGGGLVQPGGSLRVSCAASGFTLNTYWMHWVRQAPGKGLVWVSRINEDGTTISYADSVRGRFTISRDNAENTLYLQMHSLRAEDTGVYYCARDFTGPFDSWGQGTLVSVSS
VL: QSVLTQPPSVSGTPGQRVTISCSGSNSNAGRDYVSWYQQVPGTAPKLLIYKNNQRPSGVPDRFSGSKSGTSASLAISGLRSEDDGDYYCIVWDGSLSGYVFGTGTKVTVL
notes: Tested as purified recombinant whole human IgG1 (Expi293F); also called 06-AB-133; anti-whole cell mAb
B16: in the assay with human serum albumin, the binding result is given as “no binding”.

B17: AB139 (antibody, human IgG1, V domains shown)
VH: B16 VH
VL: B16 VL with A29V, Q54R
notes: Tested as purified recombinant whole human IgG1 (Expi293F); also called 06-AB-139; anti-whole cell mAb
In the case of B17, the binding result in the assay with human serum albumin is recorded as “no binding”.

B18: AB140 (antibody, human IgG1, V domains shown)
VH: B16 VH
VL: B16 VL with S2L, A29V
notes: Tested as purified recombinant whole human IgG1 (Expi293F); also called 06-AB-140; anti-whole cell mAb
Turning to B18, the binding result with human serum albumin is given as “no binding”.
